This passage reports Km results from PMC12208494, “The zinc metalloprotein MigC impacts cell wall biogenesis through interactions with an essential Mur ligase in Acinetobacter baumannii” (PLOS Pathogens, 2025).

What all share (type): biochemical, Acinetobacter baumannii
Substrate in the data set “HPLC of UMAG formation”: Nc1ncnc2c1ncn2[C@@H]1O[C@H](COP(=O)(O)OP(=O)(O)OP(=O)(O)O)[C@@H](O)[C@H]1O
The data set is described as follows: HPLC of UMAG formation. Particulars: 200 µM UMA, 1 mM D-glutamate, 2 mM MgCl2, 500 µM GTP, BSA added (no MigC), pH 7.4, 37 °C.

Substrate in data set [1]: Nc1nc2c(ncn2[C@@H]2O[C@H](COP(=O)(O)OP(=O)(O)OP(=O)(O)O)[C@@H](O)[C@H]2O)c(=O)[nH]1
The data set is described as follows: malachite green phosphate release. As to conditions: Zn-bound MigC (1 equivalent Zn), 2 mM MgCl2, 150 mM KCl, pH 7.4, 37 °C.

Substrate in data set [2]: Nc1ncnc2c1ncn2[C@@H]1O[C@H](COP(=O)(O)OP(=O)(O)OP(=O)(O)O)[C@@H](O)[C@H]1O
Kind of data set: malachite green phosphate release. Particulars: Zn-bound MigC (1 equivalent Zn), 2 mM MgCl2, 150 mM KCl, pH 7.4, 37 °C.

B1: MurD (Acinetobacter baumannii ATCC 17978) (protein)
chain: MLIQRGGLKVVAGLGISGVSAVNFLHEQGYQVAVTDSRPTPPGHDQIPAGVKTSFGQLDQELLLQAEEIILSPGLAPQLPEIQAAIAKGISVVGDIQLLRRATDVPIVAITGSNAKSTVTTLIGLMAKDAGKKVAVGGNLGRPALDLLKDQPELLVLELSSFQLETTSHLNAEVAVVLNMSEDHLDRHGNMLGYHQAKHRIFQGAKKVVFNRDDALSRPLVPDTTPMQSFGLNAPDLNQYGVLRDADGTLWLACGLQRLIKSSDLYIQGMHNVANALACLALGEAIGLPMESMLETLKQFKGLEHRCEYVKTVHDVRYYNDSKGTNVGATLAAIDGLGAAIEVKKGKVALILGGQGKGQDFSPLRSSIEKYAKVVVLIGEDAPVIEQAIQGATKILHAATLKEAVELCQRETQAEDVVLLSPACASFDMFKSYNDRGQQFVACVNSLV
notes: full length, N-terminal 6xHis tag removed by TEV protease, E. coli BL21(DE3)
With B1, the Michaelis-Menten constant (Km) in the data set “HPLC of UMAG formation” is reported as 149 ± 25 µM.

B2: MigC (A1S_0934) (Acinetobacter baumannii) (protein)
chain: MKLIAQKTVPTHIISGFLGAGKTTLLQHLLSQKPKDEVWAVLMNEFGQIGVDQQLLPQDQGYAVKELLGGCLCCSSQLPMHIALARLLSEQKPDRLFIEPTGLGHPSQLFDQLTEPHWQNSLAMRALVTVVDGSRLHDTNWVKQNLYEDQLKAAQIVVVSHADTMTFEDEQALVELKEEYQPYQQQWLKTEHGQLELAQIDVPARLTERSIQPLLKLQKQMTEAEVVKEIHQLPYHYVETAQGYMVAGWKFPKRWKFEFYALLDVLCAQQDWLRIKGIFNTDQGWKTFNFNPEQFNYKSGEEGIDNRIEMISQHEHDWLAFETELLACRIEQ
notes: pre-loaded with 1 equivalent Zn; UniProt ID is the one representing MigC in a homologue alignment and may be from another strain
Take B2: the Km in data set [1] is reported as 110 ± 14 µM; in data set [2], 51.1 ± 12 µM.
